Experimental findings from patent US20200239537 are described below.

The data set has as its target T1, apelin-17 (2).
T1 chain: KFRRQRPRLSHKGPMPF

B1: recombinant human neprilysin (rhNEP, Sino Biological) (protein)
chain: YDDGICKSSDCIKSAARLIQNMDATTEPCTDFFKYACGGWLKRNVIPETSSRYGNFDILRDELEVVLKDVLQEPKTEDIVAVQKAKALYRSCINESAIDSRGGEPLLKLLPDIYGWPVATENWEQKYGASWTAEKAIAQLNSKYGKKVLINLFVGTDDKNSVNHVIHIDQPRLGLPSRDYYECTGIYKEACTAYVDFMISVARLIRQEERLPIDENQLALEMNKVMELEKEIANATAKPEDRNDPMLLYNKMTLAQIQNNFSLEINGKPFSWLNFTNEIMSTVNISITNEEDVVVYAPEYLTKLKPILTKYSARDLQNLMSWRFIMDLVSSLSRTYKESRNAFRKALYGTTSETATWRRCANYVNGNMENAVGRLYVEAAFAGESKHVVEDLIAQIREVFIQTLDDLTWMDAETKKRAEEKALAIKERIGYPDDIVSNDNKLNNEYLELNYKEDEYFENIIQNLKFSQSKQLKKLREKVDKDEWISGAAVVNAFYSSGRNQIVFPAGILQPPFFSAQQSNSLNYGGIGMVIGHEITHGFDDNGRNFNKDGDLVDWWTQQSASNFKEQSQCMVYQYGNFSWDLAGGQHLNGINTLGENIADNGGLGQAYRAYQNYIKKNGEEKLLPGLDLNHKQLFFLNFAQVWCGTYRPEYAVNSIKTDVHSPGNFRIIGTLQNSAEFSEAFHCRKNSYMNPEKKCRVW
Consider B1, for which the Michaelis-Menten constant (Km) is 190 µM, the kcat (1/S) is 3.4 1/S and the kcat/Km (1/MS) was 18000 1/MS.

Usually Km stands for the substrate concentration at which the rate is half of its maximum.
